The values below come from paper PMC4837482, “The complex binding mode of the peptide hormone H2 relaxin to its receptor RXFP1” (Nature Communications, 2016).

Test [1] concerns the target T1, RXFP1 (Homo sapiens, UniProt Q9HBX9).
T1 construct: transiently transfected human embryonic kidney (HEK) 293T cells expressing full-length RXFP1 and mutants; expressed in transfected cells; host or cells: HEK293T
T1 sequence (Q9HBX9 1-757): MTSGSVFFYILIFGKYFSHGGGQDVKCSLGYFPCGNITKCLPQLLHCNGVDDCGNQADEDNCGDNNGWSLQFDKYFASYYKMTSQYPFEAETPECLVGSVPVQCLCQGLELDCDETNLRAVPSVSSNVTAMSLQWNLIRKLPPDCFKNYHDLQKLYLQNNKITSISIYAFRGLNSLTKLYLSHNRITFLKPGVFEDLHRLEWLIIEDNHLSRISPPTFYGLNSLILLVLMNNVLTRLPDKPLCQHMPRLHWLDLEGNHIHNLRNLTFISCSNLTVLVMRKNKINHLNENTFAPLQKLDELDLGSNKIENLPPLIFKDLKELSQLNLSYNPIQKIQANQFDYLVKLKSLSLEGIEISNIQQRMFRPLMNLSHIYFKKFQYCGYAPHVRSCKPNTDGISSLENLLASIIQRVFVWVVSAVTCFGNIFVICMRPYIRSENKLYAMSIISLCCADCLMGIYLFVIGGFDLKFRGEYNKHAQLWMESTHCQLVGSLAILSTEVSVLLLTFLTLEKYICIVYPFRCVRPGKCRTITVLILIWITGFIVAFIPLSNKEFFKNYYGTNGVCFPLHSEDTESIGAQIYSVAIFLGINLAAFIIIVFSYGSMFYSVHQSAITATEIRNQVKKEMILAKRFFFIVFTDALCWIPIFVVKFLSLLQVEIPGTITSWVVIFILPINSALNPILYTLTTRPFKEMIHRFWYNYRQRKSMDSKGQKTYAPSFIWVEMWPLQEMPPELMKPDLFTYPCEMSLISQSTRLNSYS
The test can be described thus: cAMP activity assay (pCRE β-galactosidase reporter), transfected HEK293T cells. It is filed as cell-based. To be noted: Mn2+ replacing Eu3+ in the DTPA cage; method not described. The protocol: Media was aspirated and plates stored frozen at −80 °C overnight. […] H2 relaxin dilutions were prepared in minimal media containing 1% DMSO. Positive and negative control stimulations were achieved by incubation with 5 μM Forskolin and minimal media/1% DMSO, respectively. Plates were developed by 10 min of incubation in 25 μl of lysis buffer 1 (100 mM Na2HPO4, pH 8.0, 0.2 mM MgSO4 0.01 mM MnCl2); a further 10 min of incubation in 100 μl of buffer 2 (100 mM Na2HPO4, pH 8.0, 2 mM MgSO4, 0.1 mM MnCl2, 0.5% Triton X-100, 40 mM β-mercaptoethanol); then to each well 25 μl of the β-galactosidase substrate, chlorophenol red-β-D-galactopyranoside (Roche) was added. All incubation steps were conducted with orbital shaking. Color-change was monitored and readings were taken on a Benchmark Plus Microplate Reader (Bio-Rad) at 570 nm. A minimum of three separate experiments were performed, each of them in triplicate, and data were pooled and presented as percentages of the maximum response induced by 5 μM Forskolin±s.e.m.

The target of test [2] is T1, RXFP1. The test is described as follows: Eu-H2 relaxin saturation binding assay, transfected HEK293T cells. To be noted: Mn2+ replacing Eu3+ in the DTPA cage; method not described.
Test [3] addresses T2, F50A RXFP1(1–72) (Homo sapiens, UniProt Q9HBX9, F72A).
T2 construct: GB1 (N, cleaved yes); made in house; host or cells: E. coli BL21 (DE3) trxB
T2 sequence (Q9HBX9 23-94 F72A): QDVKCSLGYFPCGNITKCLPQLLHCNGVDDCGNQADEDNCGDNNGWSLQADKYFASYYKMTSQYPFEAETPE
The test is described as follows: Paramagnetic line-broadening (1H-15N HSQC) titration with Mn2+-DTPA-(A)-H2. It is filed as binding. To be noted: 50 μM F50A RXFP1(1–72), 0.2 μM Mn2+-DTPA-(A)-H2; versus wild type. The protocol: (§1) All RXFP1(1–72) protein samples for nuclear magnetic resonance (NMR) experiments were prepared from lyophilized protein in 50 mM imidazole, with 10 mM CaCl2 at pH 6.8. Recombinant human gene-2 H2 relaxin peptide was kindly provided by Corthera. EL1^(475–486)/EL2-GB1 samples were prepared as described above. Titrant and titrand were dialyzed in the same buffer in the same vessel. All NMR experiments were routinely collected at 25 °C on a 700-MHz Bruker Avance HDIII spectrometer equipped with triple resonance cryoprobe. […] Backbone assignments were made from 3D HNCACB, HNCOCACB, HNCO and HNCACO experiments. Spectra were processed using NMRPipe (ref. [43]) and typically Fourier-transformed after applying Lorentz-to-Gauss window functions in the direct dimension and cosine bells in the indirect dimensions. NMR data were analysed using SPARKY (Goddard, T.D. and Kneller, D.G., University of California, San Francisco). Assignments of the mutant RXFP1(1–72) proteins were determined from the assignments of wild-type RXFP1(1–72).
(§2) ^15N{^1H}-NOE experiments[45] (2,048 × 256 data points) were acquired with a saturation pulse of 4 s and an additional relaxation delay of 5 s. Sample conditions were 150 μM RXFP(1–72) or mutants either without or with 450 μM H2 relaxin. Binding to Mn^2+-DTPA-(A)-H2 to RXFP1(1–72) and mutants was monitored by recording 2D ^1H-^15N HSQC (2,048 × 256 data points) for 0.2 μM Mn^2+-DTPA-(A)-H2 against 50 μM RXFP1(1–72). H2 relaxin and its truncates such as A-chain (9–24), H2/I5 chimera and Phe23Ala A-chain mutant H2 were titrated into a complex of 50 μM RXFP1(1–72) and 0.2 μM Mn^2+-DTPA-(A)-H2 with increasing concentrations ranging from 5 to 50 μM.

For test [4], the target named is T3, F50A^Ins-RXFP1(1–72) (Homo sapiens, UniProt Q9HBX9, INS72A).
T3 construct: GB1 (N, cleaved yes); made in house; host or cells: E. coli BL21 (DE3) trxB
T3 sequence (Q9HBX9 with tags, fused parts or gaps INS72A): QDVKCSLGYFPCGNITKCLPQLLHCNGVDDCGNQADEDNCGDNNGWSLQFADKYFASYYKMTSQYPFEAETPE
The test is described as above. The format is binding. The note with it: 50 μM F50A^Ins-RXFP1(1–72), 0.2 μM Mn2+-DTPA-(A)-H2; versus wild type. How it is done: as §1, §2

Test [5] has as its target T4, F54A-RXFP1(1–72) (Homo sapiens, UniProt Q9HBX9, F76A).
T4 construct: GB1 (N, cleaved yes); made in house; host or cells: E. coli BL21 (DE3) trxB
T4 sequence (Q9HBX9 23-94 F76A): T2 sequence (Q9HBX9 23-94 F72A) with A50F, F54A
The description is as above. The format is binding. To be noted: 50 μM F54A-RXFP1(1–72), 0.2 μM Mn2+-DTPA-(A)-H2; versus wild type. How it is done:
as §1, §2

Test [6] deals with T5, F54A/Y58A RXFP1(1–72) (Homo sapiens, UniProt Q9HBX9, F76A/Y80A).
T5 construct: GB1 (N, cleaved yes); made in house; host or cells: E. coli BL21 (DE3) trxB
T5 sequence (Q9HBX9 23-94 F76A/Y80A): T2 sequence (Q9HBX9 23-94 F72A) with A50F, F54A, Y58A
Described as above. The format is binding. The note with it: 50 μM F54A/Y58A RXFP1(1–72), 0.2 μM Mn2+-DTPA-(A)-H2; versus wild type. How it is done:
as §1, §2

Test [7] has as its target T6, G41A/D42A-RXFP1(1–72) (Homo sapiens, UniProt Q9HBX9, D64A/G63A).
T6 construct: GB1 (N, cleaved yes); made in house; host or cells: E. coli BL21 (DE3) trxB
T6 sequence (Q9HBX9 23-94 G63A/D64A): T2 sequence (Q9HBX9 23-94 F72A) with G41A, D42A, A50F
The test is described as above. It is filed as binding. To be noted: 50 μM G41A/D42A-RXFP1(1–72), 0.2 μM Mn2+-DTPA-(A)-H2; versus wild type. The protocol: as §1, §2

Test [8] addresses T7, G45A/W46A-RXFP1(1–72) (Homo sapiens, UniProt Q9HBX9, G67A/W68A).
T7 construct: GB1 (N, cleaved yes); made in house; host or cells: E. coli BL21 (DE3) trxB
T7 sequence (Q9HBX9 23-94 G67A/W68A): T2 sequence (Q9HBX9 23-94 F72A) with G45A, W46A, A50F
The test is described as above. It is filed as binding. The note with it: 50 μM G45A/W46A-RXFP1(1–72), 0.2 μM Mn2+-DTPA-(A)-H2; versus wild type. How it is done: as §1, §2

Numbering of substitutions follows the chain as printed.

For the substance “Mn^2+-DTPA-(A)-H2: H2 relaxin with a DTPA cage at the N-terminus of the A-chain loaded with Mn2+ (paramagnetic label)”, in test [1], the “activating RXFP1” value is on record as “no difference”. Further, the “binding to RXFP1” value in test [2] is on record as “no difference”. The “line-broadening by Mn2+-DTPA-(A)-H2 (binding)” value is “substantially reduced” in test [3]; “reduced peak broadening” in test [4]; “less than that observed for wild-type RXFP1(1–72)” in test [5]; “substantially reduced” in test [6]; “attenuated” in test [7]; “substantially less than that observed for wild-type RXFP1(1–72)” in test [8].
